Experimental findings from PMC5655238 are described below.

For the assay, the target named is Bcl-2 (UniProt P10415). In words: anti-HA IP, Bcl-2 blot. Conditions: reference: HA-Beclin-1 wild type; sites T119.

Consider “Beclin-1 (from UniProt Q14457) HA-Beclin-1 T119A”, for which the “binding against the reference” value is “stronger”.
